Experimental data: the DeepSol protein solubility set

Assay: soluble on expression in E. coli; label from the status in PepcDB or PDB records

Soluble on expression in E. coli, not soluble:
MSFVSVLSIAHKKGRGWPLLDMEIRELCCMLHKVFYLVRCTGIGFDFFRKFVLILFLAYTFKTIDSMASERKLKKQITGAISEVFTDAFLLKLFVKEEKNAEVETILNRILQLQDTTIAKIRCNDGKHNPALVKKYYRRLVDDFKEELSEIVKSISACASDN
MTTIKLIVNSVSKSERESIIAALHGQSIFNGGGLSPLNKISPSHPPKPATVAVPEETEKKARDVNEKTALLKKKSATELGELATSINTIARDAHMEANLEMEIVPQGLRVLIKDDQNRNMFERGSAQIMPFFKTLLVELAPVFDSLDNKIIITGHTDAMAYKNNIYNNWNLSGDRALSARRVLEEAGMPEDKVMQVSAMADQMLLDAKNPQSAGNRRIEIMVLTKSASDTLYQYFGQHGDKVVQPLVQKLDKQQVLSQRTR
MGSDKIHHHHHHVTSDLDFHLFCPKGALSDLVQGIWSVSRPAEADELHAWLHSDAASGLLINLGAPLGYDEQEVPAGVYLLPVNKQTTRVTLPPGALAVGVRFLPGAGRAWMMERFAFEQGREAITPLTYHAELMALAASLRACRGHRQRLSLTYRWLRANQTLNQPLPRVINEVLQALDRPDADMTAFENGVMSQRQIERYFRRYLEMTPKYYQRLMRARQTLQALKLSPLAPLADIALELGFADQAHMTRELKQLIKITPKRYRQLLTQGAG
MILQRLFRFSSVIRSAVSVHLRRNIGVTAVAFNKELDPIQKLFVDKIREYKSKRQTSGGPVDASSEYQQELERELFKLKQMFGNADMNTFPTFKFEDPKFEVIEKPQALEHHHHHH
MGSDKIHHHHHHMKLICSKANLLKGVNIVSKAVPTRTTMAILECILIDASANEIKLMANDMELGIETIIDGTIEERGIIALDAKIFSEIVRKLPDNDVTIETDASFKTVISCEKAKFNIIGKSGDDFSYIPYVERNESIVLSQFTLKEVIRQTIFSIADNDNNKLMTGELFEIEENKLRVVSLDGHRISIRYIEMKNHYDSKKVVVPGKTLQEISKIIPGSADEDVVIYITNNHIVFEFENTTVVSRLIEGEYFKIDQMLSSDYDTKVRINKRELLDCIDRATLLVKEGDKKPIIMNITDGNMELRINSFIGSMNEDIDIDKDGKDIMIGFNPKFFIDALRVIDEEEVNLYMVNPKAPCFIKDDEGKFIYLILPVNFNTAAN
MGSDKIHHHHHHMTGLSQSQASPMQIQPGNAAFNPWTDAALDTIRDVNQALTLYAEMRVVPAHHDAFLAAIDTVSAKLRVLPGFLSLALKQMSGDSTMVKNYPETYKGVLATAYLDGVAAGTQPYFYNLFVRFADGRAARAAGFEALFETHIHPLLHAMAPRGGDGPELLAYRAVLQSVVAGDRHAIYRGAEEIRSFLRRPVELPERETVTVENHVMVPEDKHAAWEPQVAILLQVAQDTFEPQDEPSGVGLPGARDNRYYRKALSTEILRNAHADGGLRAYIMHGVWESVWDHENSHLDPRFLAAAGPVGAAAVVGPVEPFYLTRRLVVAD
MATLEQKLTVLISDTIESMGYELVGVECQHAGRFLTVRLYIDKEGGVTIDDCSDVSRQVSAIFDVEDPISDKYNLEVSSPGLDRPLFTLAHYARFVGREMVIHLRIPMFDRRKWQGKLTKVDGDLISLEIENNGEHQFIFSNIQKANLIPVFDF
MVTNKLITLLPDLATFIVVVNEGSFTAAAKKLGVTPSALSKLITRLENALSVKLFERTTRSLLITESGKKIYQQSVIMVEAAQQAVDISSSEHTVPSGSLTVAAPKAFLTIVLQPLITPFLTKYPKIQLKLRASDGDIDMIAQGIDVVFRLTDKPTEGLVMKEIGKVNLSLCASPTYLEERGIPHLPQELANHDCLFLGETTTDHIWEFVKGTESHVIAVSGRYAVNHSQMRLNGVKDGFGIGIFPDFVIKEALANNEVISVLSDWQIKGNYHGVIAMQYAQNKYIPSRLKVFTEFVKENLMKSKVNDERT
MSLNEQAPVIAVLLTERTRRMMLDDAAIAQLNALGEVRWPTGAAIDATDVDQLLHGAVACLTGWGTPPFDPAARQRHPQLALVAHSAGSVRTLVPARLFDDGIRVTHAASKIAASVAEFVVAEALLAMRGIHRLHHQLRNGGEWLDVRAAVPQKLLGSRTVGIVGAGYVGRAVMRLLVPFGCRVLVVDPFLHDSEAAALGVFRAGLNDMLAQADMVSLHAPVLPETRRMIGARELALLRPGTLFINTARAELVDEAALLAEIRSGRIEAALDVFDNEPLPQDSPFRDPALANVTISPHAAGHTNEAHLAQGQAMVDEIGRLLRREPLQHEVSREGHHHHHH
